Here are results for one molecule from paper PMC9675756, “Structure of the catalytically active APOBEC3G bound to a DNA oligonucleotide inhibitor reveals tetrahedral geometry of the transition state”.

For this data set, the target named is A3G-CTD2* (catalytically inactive), MST construct (human, UniProt Q9HC16 191-384, E259A). In words: MST; 23 C; MST: 20 mM Bis-Tris pH 6.5, 100 mM NaCl, 1 mM DTT, 0.002% Tween 20, 50 nM protein, RED-tris-NTA dye, 23 C; NMR inhibition: 50 mM NaPO4 pH 6.5, 100 mM NaCl, 0.002% Tween 20, 1 mM DTT, 10 µM ZnCl2, 25 C. The conditions noted are these: protein: recombinant; tags: His (pET-28a); single strand.
Sequence of A3G-CTD2* (catalytically inactive), MST construct (Q9HC16 191-384 E259A): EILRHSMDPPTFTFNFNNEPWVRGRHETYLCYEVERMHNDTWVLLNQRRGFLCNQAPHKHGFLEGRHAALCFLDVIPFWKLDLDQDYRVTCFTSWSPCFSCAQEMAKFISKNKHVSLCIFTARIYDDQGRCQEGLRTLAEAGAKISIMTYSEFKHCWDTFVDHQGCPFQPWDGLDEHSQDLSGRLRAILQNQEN

B1: 5'-AATCCCAAA (substrate) (ssDNA)
DNA: AATCCCAAA
Consider B1, for which the Kd turned out to be 5.8 ± 0.8 µM.
